Measurements from the nanobody polyreactivity screen of Harvey et al. (2022).

experiment: yeast display, Sf9 membrane polyspecificity reagent, FACS + sequencing; frameworks hold sequencing errors
Procedure, shortened: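 A synthetic nanobody library was expressed on Saccharomyces cerevisiae BJ5465 by galactose induction for 36–48 hours. The library was stained for 1 hour at 4 °C with 10% biotinylated, detergent-solubilized Sf9 membrane reagent and enriched with streptavidin microbeads before FACS. Low and high (top ~1%) gates were set on anti-HA fluorescence for expression and streptavidin fluorescence for reagent binding, and each polyreactivity label reflects the gate of origin.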

Sequence | polyreactivity (PSR sort gate)
QVQLVESGGGLVQAGGSLRLSCAASGLIFLPYAMGWYRQAPGKERELVAAIRWSDDSTYYADSVKGRFTILRDNAKNTVYLQMNSLKPEDTAVYYCNAYVYRPSYIYNYYYEYDYWGQGTQVTVSS | high polyreactivity
QVQLVESGGGLVQAGGSLRLSCAASGLIFNLYAMGWYSQAPGKEREFVATITGIGGSTYYADSVKGRFTISRDNAKNTVYLQMNSLKPQDTAVYYCAADAWFLPYNYWGQGTQVTVSS | low polyreactivity
QVQLVESGGGLVQAGGSLRLSCAASGLIFPIYTMGWYRQAPGKERELVAAISSRGGSTYYADSVKGRFTISRDNAKNTVYLQMNSLKPEDTAVYYCAAQFRFSGMGYWGQGTQVTVSS | high polyreactivity
QVQLVESGGGLVQAGGSLRLSCAASGLIFPVYTLGWYRPAPGKERELVAAITSSGDSTYYADSVKGRFTISRDNAKNTVYVQMNSLKPEDTAVYYCAARLVEKYGGTYSFDYWGQGTQVTVSS | low polyreactivity
QVQLVESGGGLVQAGGSLRLSCAASGLIFPYYAMGWYRQAPGKERELVAAISGSGGRTYNADSVKWRFTISRDNAKNTVYLQMNSLKPEDPAVYYCAAAVLDRYTRYIWYIFDYWGQGTQVTVSS | high polyreactivity
QVQLVESGGGLVQAGGSLRLSCAASGLIFPYYAMGWYRQAPGKERELVATITRSGGNTYYADSVKGRFTISRDNAKNTVYLQMNSLKPEDTAVYYCATRYAGYRSYGYWGQGTQVTVLS | high polyreactivity
QVQLVESGGGLVQAGGSLRLSCAASGLIFQVYDMGWYRQAPGKERELVAAISSGSNTNYADSVKGRFTISRDNAKNTVYLQMNSLKPEDTAVYYCAASLGYGAMTPDMGYWGQVTQVTVSS | low polyreactivity
QVQLVESGGGLVQAGGSLRLSCAASGLIFRFYAMGWYRQAPGKERELVAAISSRGGSTYYADSVKGRFTISRDNAKNTVYLQMNSLKPEDTAVYYCAAVFSLIASSYDYWGQGTQVTVSS | high polyreactivity
QVQLVESGGGLVQAGGSLRLSCAASGLIFRPYAMGWYRQAPGKEREFVAAITWSTGSTYYADSVKGRFTISRDYAKNTVYLQMNSLKPEDTAVYYCAARYTVWRRDYNYWGQGTQVTVSS | high polyreactivity
QVQLVESGGGLVQAGGSLRLSCAASGLIFRQYPMGWYRQAPGKERELVAAITGSGGRTYYADSVKGRFTISRDNAKNTVYLQMNSLKPEDTAVYYCARPNLLSGDYWGQGTQVTVSS | high polyreactivity
QVQLVESGGGLVQAGGSLRLSCAASGLIFRRYAMGWYRQAPGKERELVAAITRNGGSTYYADSVKGRFTISRDNAKNTVYLQMNSLKPEDTAVYYCAADRYRRRGGLDYWGQGTQVTVSS | high polyreactivity
QVQLVESGGGLVQAGGSLRLSCAASGLIFRRYAMGWYRTAPGKERELVAAISSSGSTYYADSVKGRFTISRDNAKNTVYLQMNSLKPEDTAVYYCNKVTGRNADRYGYWGQGTQVTVSS | high polyreactivity
QVQLVESGGGLVQAGGSLRLSCAASGLIFRRYTMGRYRQATGKERELVAAISRGGASTSYADSVKGRFTISRDNAKNTVYLQMNSLIPEDTAVYYCAATSPRSSRTYAYDYWGQGTQVTVSS | high polyreactivity
QVQLVESGGGLVQAGGSLRLSCAASGLIFRVYAMGWYRQAPGKERELVATITRGGRTYYADSVKGRFTISRDNAKNTVYLQMNSLKPEDTAVYYCAVLSVRRSYNYWGQGTQVTVSS | high polyreactivity
QVQLVESGGGLVQAGGSLRLSCAASGLIFRWYAMGWYRQAPGTERELVAAISRRGGTTNYADSVKGRFTISRDNAKNTVYLQMNSLKPEDTAVYYCAADYQSVGGAEYDYWGQCTQVTVSS | high polyreactivity
QVQLVESGGGLVQAGGSLRLSCAASGLIFRYNTMGWYRQAPGKERELVAAITSSGGSTYYADSVKGRFTISRDNAKNTVYLQMNSLKPEDTAVYYCAKRSFYFSDYDYWGQGTQVTVSS | high polyreactivity

Sequence | polyreactivity (PSR sort gate)
QVQLVESGGGLVQAGGSLRLSCAASGLIFRYYAMGWYRQAPGKERELVAAISWSGASTYYADSVKGRFTISRDNAKNTVYLQMNSLKPEDTAVYYCGRVSYYYPSEYNYWGQGTQVTVSS | high polyreactivity
QVQLVESGGGLVQAGGSLRLSCAASGLIFRYYAMGWYRQAPGKERELVAVINYSGGRTYYADSVKGRFTISRDNAKNTVYLQMNSLKPEDTAVYYCAASFASKYEYWGQGTQVTVSS | high polyreactivity
QVQLVESGGGLVQAGGSLRLSCAASGLIFRYYAMGWYRQAPGKERELVAVISRRGDSTYYADSVKGRFTISRDNAKNTVYLHMNSLKPEDTAVYYCAAQAFVSYFKFRGGYWGQGTQVTVSS | high polyreactivity
QVQLVESGGGLVQAGGSLRLSCAASGLIFRYYTMGWYRQAPGKERELVATITKSGSSTYYADSVKGRFTISRDNAKNTVYLQMNSLKPEDTAVYYCAARAYPSYPRGVYAYYYWGQGTQVTVSS | high polyreactivity
QVQLVESGGGLVQAGGSLRLSCAASGLIFSAYAMGWYRQAPGKERELVAAISRRGTSTYYADSVKGRFTISRDNAKNTVYLQMNSLKPEDTGVYYCAADGYVFEGDYWGQGTQVTVSS | high polyreactivity
QVQLVESGGGLVQAGGSLRLSCAASGLIFSAYAMGWYRQAPGKERELVAGISRRGSTYYADSVKGRFTISRDNAKNTVYLEMNCLKPEDTAVYYFAAFFRVRFRASGYDYWGQGTQVTVSS | high polyreactivity
QVQLVESGGGLVQAGGSLRLSCAASGLIFSRNAMGWNRPAPGKERELVAAISTGGSTYYADSVKGRFTISRDNAKNTVYLQMNRLKPVDTAVYYCAAAPGYIYEYWGQGTQVTVSS | low polyreactivity
QVQLVESGGGLVQAGGSLRLSCAASGLIFSRYTMGWYRQAPGKERELVAAISKTGSSTYYADSVKGRFTISRDNAKNTVYLQMNSLKPEDTAVYYCAAETGTGETRYYRYWDYYYWGQGTQVTVSS | high polyreactivity
QVQLVESGGGLVQAGGSLRLSCAASGLIFSSNAMGWYRQAPGKERELVAAISRRGANTYYADSVKGRFTISRDNAKNTVYLQMNSLKPQDTAVYYCAKRYVGRGTSYQDYYWGQGTQVTVSS | high polyreactivity
QVQLVESGGGLVQAGGSLRLSCAASGLIFSSYAMGLNRQAPGKEREFVAAISRTGGITYYADSVKGRFTISRDYAKNTVYLQMNSLKPEDTAVYYCNARWYDPTLKVGYWGQVTQVTVSS | high polyreactivity
QVQLVESGGGLVQAGGSLRLSCAASGLIFSSYAMGWYRQAPGKERELVAAISRSGGRTYYADSVKGRFTISRDNAKNTVYLQMNSLKPEDTAVYYCAADRFRSGLDRPEMDYWGQGTQVTVSS | high polyreactivity
QVQLVESGGGLVQAGGSLRLSCAASGLIFSYKTMGWYRQAPGKERELVAAITSGGRTYYADSVKGRFTISRDNAKNTVYLQMNSLKPEDTAVYYCAVLSKWRYDYWGQGTQVTVSS | high polyreactivity
QVQLVESGGGLVQAGGSLRLSCAASGLIFSYNAMGWYRQAPGKERELVAAISYSGGSTYYADSVKGRFTISRDNAKNTVYLQMNSLKPEDTAVYYCAAVLSPDFYYWGQGTQVTVSS | high polyreactivity
QVQLVESGGGLVQAGGSLRLSCAASGLIFSYNAMGWYRQAPGKVRELVATSRRVGSTHYADSVKGRFTISRDNAKNTVYLPMNSLKPEDTAVYDCAARSLRYGRGMYYWGQGTQGTVSS | high polyreactivity
QVQLVESGGGLVQAGGSLRLSCAASGLIFSYYAMGWYRQAPGKERELVAAISRGGSTNYADSVKGRFTISRDDAKNTVYLQMNSLKPEDTAVYYCAARWQWLNGYYYWGQGTQVTVSS | high polyreactivity
QVQLVESGGGLVQAGGSLRLSCAASGLIFTGNVMGWYRQAPGKERELVAAISRSGGRTYYADSVKGRFTISRDNAKNTVYLQMNSLKPEDTAVYYCNKVSPERVYYGSYFRYYYWGQGTQVTVSS | high polyreactivity
